# Source: the RNAGym collection of RNA variant scans (doi:10.7554/elife.80360)
# B1: Hairpin Ribozyme (parent)
# chain: GUCCUCUUUCACGUGCGCGUGAAAGAGAGAAGUGAACCAGAGAAACACACGUUGUGGUAUAUUACCUGGUA
# Variants of: B1
# Assay: self-cleavage, relative activity (ratio to wild type); higher = more cleavage; co-transcriptional
row,Variant,self-cleavage
1,GUCCUCUUUCAGGUGCGCGUGAAAGAGAGAAGUGAACCAGAGAAACACACGUUGUGGUUUAUUACCUGGUA [C12G A59U],0.134
2,GUCCUCUAUCACGUGCGCGUGAAAGAGAGAAGUGAACCAGAGAAACACACGUUGUGGUAUAUUACCUCGUA [U8A G68C],0.215
3,GUCCUCUUUCACGUGCGCGUGAAAGAGAGAAGUGAACUAGAGAAACACACGUUGUGGUAUAUUACCUGCUA [C38U G69C],0.158
4,GUCCUCUUUCACGUGCGCUUGAAAGAGAGAAGUGAACCAUAGAAACACACGUUGUGGUAUAUUACCUGGUA [G19U G40U],0.194
5,GUCCUCUUUCACGUGCGCGUGAAAGAGAGAAGUGAACCAGAGAGAGACACGUUGUGGUAUAUUACCUGGUA [A44G C46G],0.0715
6,GUCCUCUUUCACGUGCGCGUGAAAGGGAGAAGUGCACCAGAGAAACACACGUUGUGGUAUAUUACCUGGUA [A26G A35C],0.799
7,GUCCUCUUUCACGUGCUCGUGAAAGAGAGAAGUGAUCCAGAGAAACACACGUUGUGGUAUAUUACCUGGUA [G17U A36U],0.483
8,GUCCUCUUUCACGUGCGCGUGAAAGAGAGAAGUGAACCAGAGAAACACACGUUGUGAUAUAUAACCUGGUA [G57A U63A],0.131
9,GUCCACUUUCACGUGCGCGUGAAAGAGAGAAGUGAACCAGAGAAACACUCGUUGUGGUAUAUUACCUGGUA [U5A A49U],0.0811
10,GUCCUCUUUCACGUGCGCGUGAAAGAGAGCAGUGAACCAGAGAAACACACGCUGUGGUAUAUUACCUGGUA [A30C U52C],0.133
11,GUCCUCUUUCACGUGCGCGUGAAAGAGAGACGUGAACCAGAGAAACACACGUUGUGGUAUAUUUCCUGGUA [A31C A64U],0.11
12,GUACUCUUUCACGUGCGCGUGAAAGAGAGAAGUGAACCAGAGAAACACACGUUGUGUUAUAUUACCUGGUA [C3A G57U],0.153
13,GUCCUCUUUCACGUGGGCGUGAAAGAGAGAAGUGAACCAGAGAAACACACGUUGUUGUAUAUUACCUGGUA [C16G G56U],0.187
14,GUCCUCUUUCACGUGAGCGUGAAAGAGAGAAGUGAAGCAGAGAAACACACGUUGUGGUAUAUUACCUGGUA [C16A C37G],0.324
15,GUCCUCUUUCACGUGCGCGUGAAAGAGAGAAGUGAACCAGAGAAACAUACGUUGUGGCAUAUUACCUGGUA [C48U U58C],0.333
16,GUCCACUUUCACGUGCGCGUGAAAGAGAGAAGUGAACCAGAGAAACACACGUUGUGGUAUAUUACGUGGUA [U5A C66G],0.176
17,GUCCUCUUUCACGUGCGCGUGAAAGAGCGAAGUGAACCAGAGAAACACACGUUGUGGUAUAUUACCUCGUA [A28C G68C],0.309
18,GUCCUCUUUCACGUGCGCGUGAAAGAGAGAAGUGAACCAGAAAAACACACGUUGUGGUAUCUUACCUGGUA [G42A A61C],0.0818
19,GUCCUCUUUCACGUGCGCGUGAAAGAGAGAAGAGAACCAGAAAAACACACGUUGUGGUAUAUUACCUGGUA [U33A G42A],0.168

row,Variant,self-cleavage
1,GUCCUCUUUCACGUGCGCGUGAAAGAGAGAAGUGAACCAGAGUAACAAACGUUGUGGUAUAUUACCUGGUA [A43U C48A],0.206
2,GUCCUCUUUCAAGUGCGCAUGAAAGAGAGAAGUGAACCAGAGAAACACACGUUGUGGUAUAUUACCUGGUA [C12A G19A],0.876
3,GUCCUCUUUCACGUGCGCGUGACAUAGAGAAGUGAACCAGAGAAACACACGUUGUGGUAUAUUACCUGGUA [A23C G25U],0.172
4,GUCCUCUUUCACGUGGGCGUUAAAGAGAGAAGUGAACCAGAGAAACACACGUUGUGGUAUAUUACCUGGUA [C16G G21U],0.442
5,GUCCUCUUUCACGUGCGGGUGAAAGAGAGAAGUGAACCAGAGAAACACACGUUGUGGUAAAUUACCUGGUA [C18G U60A],0.9
6,GUCCUCUUUGAAGUGCGCGUGAAAGAGAGAAGUGAACCAGAGAAACACACGUUGUGGUAUAUUACCUGGUA [C10G C12A],0.491
7,GUCCUCUUUCACGUGCGCGUGAAAGAGAGAAGUGAACCCGAGAAACACACGUUGUGGUAUAUCACCUGGUA [A39C U63C],0.122
8,GUCCUCUUUCACGUGCGCGUGAAAGAGAGAAGUGAACCAGAGAAACACACGUUGUUGUCUAUUACCUGGUA [G56U A59C],0.135
9,GUCCUCUUUCACGUGCGCGUGAAAGAGAGAAGUGUACCAGAGAAACACACGUUGUGGUAUAUUGCCUGGUA [A35U A64G],0.465
10,GUCCUCUUUCACAUGCCCGUGAAAGAGAGAAGUGAACCAGAGAAACACACGUUGUGGUAUAUUACCUGGUA [G13A G17C],0.507
11,GUCCUCUUUCAAGUGCGCGUGAAAGAGAGAAGUGAACCAGAGAAACACACGUCGUGGUAUAUUACCUGGUA [C12A U53C],0.939
12,GUCCUCUUUCACGUGCGCGUGAAAGAGAGAAGUGACCCAGAGAAACACACGUUGUGGUUUAUUACCUGGUA [A36C A59U],0.157
13,GUCCUCUUUCACGUGCGCGUGAAAGGGAGAAGUGUACCAGAGAAACACACGUUGUGGUAUAUUACCUGGUA [A26G A35U],0.523
14,GUCCUCUUUCACGUGGGCGUGAAAGAGAGAAGUGAACCAGAGAAACACACGUUGUGGUAUAUUCCCUGGUA [C16G A64C],0.161
15,GGCCUCUUUCACGUGCGCGUGAAAGAGAGAAGUGAACCAGAGAAACACACGUUGUGGUAUAUUACCUGGCA [U2G U70C],0.12
16,GUCUUCUUUCACGUGCGCGUGAAAGAGAGAAGUGAACCAGAGAAACACACGGUGUGGUAUAUUACCUGGUA [C4U U52G],0.209
17,GUCCUCUUUCACGUGCGCGUGAAAGGGAGAAGUGAAGCAGAGAAACACACGUUGUGGUAUAUUACCUGGUA [A26G C37G],0.237
18,GUCCUCUUUCACGUGCGCGUGGAAGAGAGAAGUGAGCCAGAGAAACACACGUUGUGGUAUAUUACCUGGUA [A22G A36G],0.757
19,GUCCUCUUUCACGUGCGCGUGAAAGAGAGAAGUGAGCCAGAGAAACACACGUUGAGGUAUAUUACCUGGUA [A36G U55A],0.301
